# Test results: article PMC9651861 (Science Advances, 2022)
# Columns and labels:
# Conditions in all cases: both partners purified
# human serum albumin [1] = target: T1, human serum albumin (Homo sapiens, UniProt P02768); test: BLI
# T1 construct: also called HSA
# [2] = target: pancreatic bovine trypsin (Bos taurus, UniProt P00760); test: BLI; His-tagged DesAb (7.5 μM) loaded to saturation on Ni-NTA sensors, trypsin in solution; 170 mM NaCl, 50 mM tris-HCl, 10 mM MgCl2 pH 7.4; 25°C
# [3] = target: T2, SARS-CoV-2 Spike Glycoprotein (S1) His-Tagged RBD (SARS-CoV-2, UniProt P0DTC2); test: BLI
# T2 construct: source: bought: The Native Antigen Company (REC31849), produced in HEK293 cells
# human serum albumin [4] = target: T1, human serum albumin; test: BLI; HSA (4 μM) loaded on APS sensors; DesAbs at 1 μM, 500 nM and 250 nM (Nb.B201 at 800 and 400 nM); 170 mM NaCl, 50 mM tris-HCl, 10 mM MgCl2 pH 7.4; 25°C; global fit, Kd = Koff/Kon
# [5] = target: T2, SARS-CoV-2 Spike Glycoprotein (S1) …; test: BLI; remark: listed apart in the source
# human serum albumin [6] = target: T1, human serum albumin; test: BLI; HSA (4 μM) loaded on APS sensors; DesAbs at 1 μM, 500 nM and 250 nM (Nb.B201 at 800 and 400 nM); 170 mM NaCl, 50 mM tris-HCl, 10 mM MgCl2 pH 7.4; 25°C; global fit, Kd = Koff/Kon; remark: listed apart in the source
# human serum albumin [7] = target: T1, human serum albumin; test: BLI; remark: listed apart in the source
# Sequence of pancreatic bovine trypsin (P00760 24-246): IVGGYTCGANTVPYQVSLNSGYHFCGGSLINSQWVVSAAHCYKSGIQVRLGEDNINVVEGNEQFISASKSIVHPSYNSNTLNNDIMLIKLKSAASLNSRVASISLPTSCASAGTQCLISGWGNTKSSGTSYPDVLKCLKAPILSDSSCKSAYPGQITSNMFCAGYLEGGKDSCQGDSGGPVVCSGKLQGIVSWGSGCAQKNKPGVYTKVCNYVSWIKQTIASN
binder,measurement,setting,value
DesAb-HSA-D3 (VHH) VHH: EVQLQESGGGLVQAGGSLRLSCAASGELYALISMGWFRQAPGKEREFVAAISRNGDNTYYTDSVKGRFTISRDNAKNTVELQMNSLKPEDTAVYYCAADKFASPDGSVTIMTNEYDYWGQGTQVTVSD,Kd,human serum albumin [1],180 nM
DesAb-Tryp (VHH) VHH: EVQLEESGGGLVQPGGSLRLSCAASGFNIKDTYIGWVRQAPGKGEEWVASIYPTSGYTRYADSVKGRFTISADTSKNTAYLQMNSLRAEDTAVYYCAAGSQSGYHFEEFDYWGQGTLVTVSS,Kd,[2],1800 nM
same,binding result,[3],no binding (tested: 4 μM)
same,binding result,human serum albumin [4],no binding (tested: 1 μM)
DesAb-RBD-C2 (VHH) VHH: EVQLEESGGGLVQPGGSLRLSCAASGFNIKDTYIGWVRQAPGKGEEWVASIYPTSGYTRYADSVKGRFTISADTSKNTAYLQMNSLRAEDTAVYYCAAGSVVADLSVEEFDYWGQGTLVTVSS,Kd,[5],130 nM
DesAb-HSA-P2 (VHH) VHH: EVQLEESGGGLVQPGGSLRLSCAASGFNIKDTYIGWVRQAPGKGEEWVASIYPTSGYTRYADSVKGRFTISADTSKNTAYLQMNSLRAEDTAVYYCAAGSAQAGNAEEAEEEFDYWGQGTLVTVSS,Kd,human serum albumin [6],380 nM
DesAb-HSA-P1 (VHH) VHH: EVQLEESGGGLVQPGGSLRLSCAASGFNIKDTYIGWVRQAPGKGEEWVASIYPTSGYTRYADSVKGRFTISADTSKNTAYLQMNSLRAEDTAVYYCAAGSIQKSLQTAESILEEFDYWGQGTLVTVSS,Kd,human serum albumin [1],120 nM
DesAb-RBD-C1 (VHH) VHH: EVQLEESGGGLVQPGGSLRLSCAASGFNIKDTYIGWVRQAPGKGEEWVASIYPTSGYTRYADSVKGRFTISADTSKNTAYLQMNSLRAEDTAVYYCAAGSGSSATEVYEEFDYWGQGTLVTVSS,Kd,[5],210 nM
"Nb.B201 (VHH, also called yeast display-derived anti-HSA nanobody) VHH: QVQLQESGGGLVQAGGSLRLSCAASGYISDAYYMGWYRQAPGKEREFVATITHGTNTYYADSVKGRFTISRDNAKNTVYLQMNSLKPEDTAVYYCAVLETRSYSFRYWGQGTQVTVSS",binding result,human serum albumin [7],binds
